In US20190345246A1 (TYMPOBIO, published 2019):
One block for each binder: values may come before it.

Legend:
[1] = target: T1, recombinant human IL-1β (human, UniProt P01584 117-269); test: cell-based or functional assay
[2] = target: T1, recombinant human IL-1β; test: cell-based or functional assay; remark: listed apart in the source
[3] = target: T1, recombinant human IL-1β; test: cell-based or functional assay; remark: listed apart in the source
[4] = target: T2, Cynomolgus rIL-1β (cynomolgus, UniProt P79182 117-268, limits assumed); test: cross-reactivity table (direct ELISA)
T2 construct: also called cynomolgus IL-1β
Method: (§1) Plate wells were coated with each protein and incubated overnight at 4° C.

[5] = target: T3, Rhesus monkey rIL-1β (rhesus monkey, UniProt P48090 117-269); test: cross-reactivity table (direct ELISA)
T3 construct: also called rhesus macaque IL-1β; rhesus IL-1β
Method: as §1

[6] = target: T1, recombinant human IL-1β; test: Kinetic Exclusion Assay (KinExA, Sapidyne)
From the text: Kd is a specific type of equilibrium constant that measures the propensity of a larger object to separate (dissociate) reversibly into smaller components. A Kd analysis requires immobilization of one interaction partner (the […] binding partner) to a solid phase which is then used as a probe to capture the other interaction partner. For each experiment, one of the binding partners is titrated in a background of the captured binding partner (CBP) and allowed to reach equilibrium. The solutions are then briefly exposed to the solid phase and a portion of free CBP is captured. The captured CBP is then labelled with a fluorescent secondary molecule. The signals generated from CBP are used to calculate the Kd value which is directly proportional to the concentration of free CBP in the equilibrated sample.

[7] = target: T4, recombinant canine IL-1β (canine, UniProt Q28292 115-266, limits assumed); test: cross-reactivity table (Table 2), direct ELISA; text: no detectable binding to canine IL-1β
T4 construct: also called Canine rIL-1β
T4 sequence (looked up): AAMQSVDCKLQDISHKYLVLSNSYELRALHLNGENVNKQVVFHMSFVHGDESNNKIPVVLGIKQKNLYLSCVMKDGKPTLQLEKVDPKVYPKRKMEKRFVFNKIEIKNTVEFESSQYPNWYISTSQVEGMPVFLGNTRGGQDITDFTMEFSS
Method: Recombinant human IL-1β 1 mg/ml was diluted with the coating buffer to a final concentration of 2 μg/ml. 50 μl was added to the designated wells. Canine IL-1β, porcine/swine IL-1β, guinea pig IL-1β, human IL-1ra and human IL-6 were diluted in the coating buffer and added to distinct wells on the plates. Plates were incubated overnight at 4° C. […] The bound scFvs and control antibodies were detected with Protein L-Peroxidase L-HRP (1:3000), rabbit anti-goat HRP (1:5000) and streptavidin HRP (1:3000).

T3 sequence (P48090 117-269 limits assumed): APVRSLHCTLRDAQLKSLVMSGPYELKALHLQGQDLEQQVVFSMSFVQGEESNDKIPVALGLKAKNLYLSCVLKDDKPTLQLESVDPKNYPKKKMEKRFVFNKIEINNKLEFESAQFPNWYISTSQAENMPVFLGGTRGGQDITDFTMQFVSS
T2 sequence (P79182 117-268 limits assumed): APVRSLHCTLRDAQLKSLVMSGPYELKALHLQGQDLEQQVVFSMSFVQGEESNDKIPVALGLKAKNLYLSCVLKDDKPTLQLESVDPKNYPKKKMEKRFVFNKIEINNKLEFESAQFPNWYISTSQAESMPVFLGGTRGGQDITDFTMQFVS

- IC50 (read off the curve), inhibition of rhIL-1β-induced IL-6 release from human dermal fibroblasts [1]: ~60 pM
B1: canakinumab (antibody, V domains shown)
VH: QVQLVESGGGVVQPGRSLRLSCAASGFTFSVYGMNWVRQAPGKGLEWVAIIWYDGDNQYYADSVKGRFTISRDNSKNTLYLQMNGLRAEDTAVYYCARDLRTGPFDYWGQGTLVTVSS
VL: EIVLTQSPDFQSVTPKEKVTITCRASQSIGSSLHWYQQKPDQSPKLLIKYASQSFSGVPSRFSGSGSGTDFTLTINSLEAEDAAAYYCHQSSSLPFTFGPGTKVDIKR

- IC50, inhibition of IL-1β-induced IL-6 release from normal human dermal fibroblasts (IL-6 ELISA) [2]: 3 pM
- potency relative to IL-1RA, inhibition of IL-1β-induced IL-6 release [2]: 10 fold
- IC50 (column head of Table 2) [3]: 2 to 3 pM
- binding result [4]: binds
- binding result [5]: binds
- Kd [6]: 0.756 pM
- koff [6]: 5.7e-06 s⁻¹
- kon [6]: 7.55e+06 M⁻¹ s⁻¹
- binding result [7]: no binding
B2: DLX-2323 (scFv)
scFv: EIVMTQSPSTLSASVGDRVIITCQASQSIDNWLSWYQQKPGKAPKLLIYRASTLASGVPSRFSGSGSGAEFTLTISSLQPDDFATYYCQNTGGGVSIAFGQGTKLTVLGGGGGSGGGGSGGGGSGGGGSEVQLVESGGGLVQPGGSLRLSCTASGFSLSSAAMAWVRQAPGKGLEWVGIIYDSASTYYASWAKGRFTISRDTSKNTVYLQMNSLRAEDTAVYYCARERAIFSGDFVLWGQGTLVTVSS
notes: Humanized single chain antibody fragment expressed in E. coli (inclusion bodies)
